Reference: patent US5352595, “Myod regulatory region” (Fred Hutchinson Cancer Research Center)

Target: MyoD:E12 heterodimer (UniProt P10085;P15806 P10085:1-318,P15806:1-651)
Assay: EMSA

Sequence of MyoD:E12 heterodimer (P10085 whole entry, chain 1 of 2): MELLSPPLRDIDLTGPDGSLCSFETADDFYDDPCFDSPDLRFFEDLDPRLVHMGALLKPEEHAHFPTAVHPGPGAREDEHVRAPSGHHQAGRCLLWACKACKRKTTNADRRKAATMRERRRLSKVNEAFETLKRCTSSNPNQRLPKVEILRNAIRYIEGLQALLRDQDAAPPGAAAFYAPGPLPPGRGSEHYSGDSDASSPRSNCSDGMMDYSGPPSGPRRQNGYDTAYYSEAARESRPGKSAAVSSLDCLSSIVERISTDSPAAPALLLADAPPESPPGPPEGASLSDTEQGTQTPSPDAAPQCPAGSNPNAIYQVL
Sequence of MyoD:E12 heterodimer (P15806 whole entry, chain 2 of 2): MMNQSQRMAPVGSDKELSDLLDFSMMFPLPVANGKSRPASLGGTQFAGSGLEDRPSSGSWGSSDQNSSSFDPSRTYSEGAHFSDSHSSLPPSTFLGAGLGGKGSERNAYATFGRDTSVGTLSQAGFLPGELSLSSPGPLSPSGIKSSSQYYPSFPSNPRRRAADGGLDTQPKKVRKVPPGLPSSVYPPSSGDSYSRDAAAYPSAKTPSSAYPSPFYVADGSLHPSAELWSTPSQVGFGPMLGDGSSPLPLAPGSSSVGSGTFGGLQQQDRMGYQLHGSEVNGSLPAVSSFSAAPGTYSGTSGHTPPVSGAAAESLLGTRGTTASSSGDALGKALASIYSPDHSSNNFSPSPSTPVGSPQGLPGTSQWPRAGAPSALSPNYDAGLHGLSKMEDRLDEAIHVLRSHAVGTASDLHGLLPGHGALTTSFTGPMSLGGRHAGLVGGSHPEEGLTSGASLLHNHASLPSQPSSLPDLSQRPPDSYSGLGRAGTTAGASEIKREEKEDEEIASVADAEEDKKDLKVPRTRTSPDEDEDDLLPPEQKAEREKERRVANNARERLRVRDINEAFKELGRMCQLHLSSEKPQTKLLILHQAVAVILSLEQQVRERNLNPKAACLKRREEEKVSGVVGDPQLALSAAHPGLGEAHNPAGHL

B1: myoD PRR A site (-190) (dsDNA)
DNA 1: GGCAGCTGCC
DNA 2: GGCAGCTGCC
binding result: binds
